PMC8049743, “Discovery and characterization of a novel family of prokaryotic nanocompartments involved in sulfur metabolism” (eLife, 2021)
Blank lines part the entries; values can stand above or below the molecule they belong to.

Legend:
[1] = target: T1, ΔNTD-CyD (unencapsulated) (Synechococcus elongatus, UniProt Q8KUU5); experiment: coupled alanine dehydrogenase assay, NADH fluorescence; type: biochemical; settings: 25 mM Tris-HCl pH 8, 150 mM NaCl, 5 mM NAD+, 25 °C, 200 nM enzyme
T1 construct: N-terminal His-SUMO tag cut off; E. coli; 45 kDa
T1 sequence (Q8KUU5 226-626 limits assumed): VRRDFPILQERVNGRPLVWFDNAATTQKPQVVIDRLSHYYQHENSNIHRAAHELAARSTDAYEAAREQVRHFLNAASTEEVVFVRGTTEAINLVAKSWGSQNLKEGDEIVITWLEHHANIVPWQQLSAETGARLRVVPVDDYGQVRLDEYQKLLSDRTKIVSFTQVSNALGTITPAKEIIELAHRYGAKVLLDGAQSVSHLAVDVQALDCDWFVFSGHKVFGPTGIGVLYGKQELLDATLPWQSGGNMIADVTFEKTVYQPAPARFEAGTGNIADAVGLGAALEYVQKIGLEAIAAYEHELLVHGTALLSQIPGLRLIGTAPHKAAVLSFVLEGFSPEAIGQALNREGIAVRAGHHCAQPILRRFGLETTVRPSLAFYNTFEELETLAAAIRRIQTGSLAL

[2] = target: T2, encapsulated CyD (CyD-loaded SrpI encapsulin) (Synechococcus elongatus, UniProt Q8KUU5); experiment: as above; type: biochemical; settings: 25 mM Tris-HCl pH 8, 150 mM NaCl, 5 mM NAD+, 25 °C, 200 nM enzyme; CyD encapsulated in SrpI shell
T2 construct: E. coli; 1-2 CyD copies seen in difference map; with Type 2A encapsulin shell protein SrpI
T2 sequence (Q8KUU5 1-626): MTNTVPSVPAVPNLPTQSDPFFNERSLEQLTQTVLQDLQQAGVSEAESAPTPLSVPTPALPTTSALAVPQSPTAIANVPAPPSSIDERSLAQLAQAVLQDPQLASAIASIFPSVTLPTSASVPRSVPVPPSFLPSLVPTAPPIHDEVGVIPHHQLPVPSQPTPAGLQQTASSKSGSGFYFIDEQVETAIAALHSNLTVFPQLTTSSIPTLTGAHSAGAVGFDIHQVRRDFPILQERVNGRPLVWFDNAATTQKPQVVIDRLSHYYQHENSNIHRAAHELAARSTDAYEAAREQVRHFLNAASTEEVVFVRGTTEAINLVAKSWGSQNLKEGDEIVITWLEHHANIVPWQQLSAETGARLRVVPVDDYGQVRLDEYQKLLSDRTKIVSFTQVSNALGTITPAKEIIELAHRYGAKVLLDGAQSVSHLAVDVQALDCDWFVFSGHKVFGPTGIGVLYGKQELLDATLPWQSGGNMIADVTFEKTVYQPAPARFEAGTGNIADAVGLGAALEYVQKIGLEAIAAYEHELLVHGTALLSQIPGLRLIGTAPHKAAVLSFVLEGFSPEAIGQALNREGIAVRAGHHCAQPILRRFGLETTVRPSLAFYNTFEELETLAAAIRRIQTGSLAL
T2 sequence (Q55032 1-306 partner): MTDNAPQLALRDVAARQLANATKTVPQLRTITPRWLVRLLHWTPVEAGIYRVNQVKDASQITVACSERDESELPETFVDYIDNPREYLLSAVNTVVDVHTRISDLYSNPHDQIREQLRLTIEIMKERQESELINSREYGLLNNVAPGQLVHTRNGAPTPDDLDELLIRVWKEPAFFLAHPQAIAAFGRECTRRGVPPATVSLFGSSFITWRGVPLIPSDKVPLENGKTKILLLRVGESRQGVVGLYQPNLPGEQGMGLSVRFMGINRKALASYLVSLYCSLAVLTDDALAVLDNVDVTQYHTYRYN

[3] = target: T3, CyD (cysteine desulfurase, unencapsulated) (Synechococcus elongatus, UniProt Q8KUU5); experiment: as above; type: biochemical; settings: 25 mM Tris-HCl pH 8, 150 mM NaCl, 5 mM NAD+, 25 °C, 200 nM enzyme
T3 construct: full length incl; 225-residue N-terminal domain; N-terminal His-SUMO tag cut off; E. coli BL21(DE3) LOBSTR; 68 kDa; PLP enzyme
T3 sequence (Q8KUU5 1-626): T2 sequence (Q8KUU5 1-626)

[4] = target: SrpI encapsulin shell protein with C-terminal 6X-His tag, from inclusion bodies, refolded (Synechococcus elongatus PCC 7942) (UniProt Q55032); experiment: negative stain TEM; apo-SrpI and holo-SrpI (CyD loaded by refolding) at 300 nM in 50 mM CAPS pH 10, 250 mM arginine, 150 mM NaCl; uranyl formate; 3D reconstruction without symmetry, ~18 Å; difference map
[5] = target: T4, SrpI encapsulin shell protein with C-terminal 6X-His tag, from inclusion bodies, refolded (Synechococcus elongatus (strain ATCC …, UniProt Q55032)); experiment: in vitro cargo loading (co-refolding), SEC co-elution and SDS-PAGE/sfGFP fluorescence; shell unfolded in GuHCl and refolded by dilution in the presence of cargo (encapsulation; CAPS pH 10, 250 mM arginine, glycerol, DTT); NTD fused to sfGFP
T4 chain: T2 sequence (Q55032 1-306 partner)

[6] = target: the molecule itself; experiment: non-denaturing SDS-PAGE; purified encapsulin, samples not heat-denatured compared with samples heated at 95°C for 15 min
[7] = target: the molecule itself; experiment: cryo-EM structure; purified holo-SrpI, 2 mg/mL in 50 mM CAPS pH 10, 250 mM arginine, 150 mM NaCl, 0.05% NP-40; 2.2 Å; symmetry expansion and focused classification for cargo density

Molecule: N[C@@H](CS)C(=O)O [L-cysteine]
coupled alanine dehydrogenase assay, NADH fluorescence [1]: the N-terminal domain had no effect on catalytic activity
coupled alanine dehydrogenase assay, NADH fluorescence [2]: the encapsulated CyD was roughly sevenfold more active than unencapsulated CyD
coupled alanine dehydrogenase assay, NADH fluorescence [3]: Unencapsulated CyD was active towards a cysteine substrate

copies of CyD in the difference density of the loaded compartment [4]: 1 to 2 copies
Molecule: Full-length cysteine desulfurase CyD (Synpcc7942_B2661), purified (enzyme)

binding result [5]: binds
B1: CyD N-terminal domain (residues 1–225) fused to sfGFP (protein)
chain: MTNTVPSVPAVPNLPTQSDPFFNERSLEQLTQTVLQDLQQAGVSEAESAPTPLSVPTPALPTTSALAVPQSPTAIANVPAPPSSIDERSLAQLAQAVLQDPQLASAIASIFPSVTLPTSASVPRSVPVPPSFLPSLVPTAPPIHDEVGVIPHHQLPVPSQPTPAGLQQTASSKSGSGFYFIDEQVETAIAALHSNLTVFPQLTTSSIPTLTGAHSAGAVGFDIHQ

B2: Thermotoga maritima Family 1 encapsulin shell protein (natural protein)
chain: MEFLKRSFAPLTEKQWQEIDNRAREIFKTQLYGRKFVDVEGPYGWEYAAHPLGEVEVLSDENEVVKWGLRKSLPLIELRATFTLDLWELDNLERGKPNVDLSSLEETVRKVAEFEDEVIFRGCEKSGVKGLLSFEERKIECGSTPKDLLEAIVRALSIFSKDGIEGPYTLVINTDRWINFLKEEAGHYPLEKRVEECLRGGKIITTPRIEDALVVSERGGDFKLILGQDLSIGYEDREKDAVRLFITETFTFQVVNPEALILLKF
notes: Family 1 encapsulin shell protein, Thermotoga maritima; also called Tm Enc; T. maritima encapsulin; source: purified
binding result [6]: binds

B3: SrpI encapsulin shell protein with C-terminal 6X-His tag, from inclusion bodies, refolded (natural protein, Synechococcus elongatus PCC 7942)
chain: T2 sequence (Q55032 1-306 partner)
notes: monomer 35 kDa; T = 1 icosahedral capsid of 60 subunits by cryo-EM; also called apo-SrpI; holo-SrpI (when loaded with CyD); copies: 60
stoichiometry N [7]: 60 subunits
